In patent US7985889B2, “AtMIN7 mediated disease resistance to Pseudomonas syringae in Arabidopsis” (priority 2007, dated 2011):
Residues, ends and D or L forms follow the SMILES beside them. *: point of attachment. Cbz = O=C(OCc1ccccc1)*

What was measured:
[1] = system: transgenic plants expressing full-length HopM1; experiment: DEX spraying of transgenic plants expressing full-length HopM1: leaf necrosis; assay type: in vivo, Arabidopsis
Description: (§1) Following inoculation, infected plants were monitored daily over a 3- to 4-day period for symptom development and bacterial multiplication. For experiments described in FIGS. 1 and 5, plants were sprayed with 30 μM dexamethasone (DEX) 24 h before bacterial inoculation (1×10^6 cfu/ml).

[2] = system: HopM1-mediated destabilization of AtMIN7; experiment: Immunoblot of HopM1-mediated destabilization of AtMIN7 with protease/proteasome inhibitors; assay type: cell-based; details: N. benthamiana leaves co-expressing AtMIN7::HA and 6×His::HopM11-712
Description: AtMIN-HA and 6×His-HopM1 proteins were detected using the HA and 6×His epitope antibodies, respectively. […] AtMIN7::HA and 6×His::HopM11-712 proteins were detected with HA and 6×His epitope antibodies, respectively.

[3] = system: Pst DC3000 ΔCEL mutant; experiment: Complementation of virulence defect in transgenic Arabidopsis expressing HopM1 or truncated derivatives; assay type: in vivo; details: protein expressed in transgenic Arabidopsis after DEX
Description: as §1
(§2) Leaves were harvested and surface sterilized as follows: 1) whole leaves were removed from a host plant and gently mixed in a 70% ethanol solution for 1 minute. Leaves were blotted briefly on paper towels then rinsed in sterile distilled water for 1 minute, then blotted dry on paper towels. Leaf disks were excised from leaves with a 0.5 cm^2 or smaller cork borer, depending on the size of the sample leaves; 2) leaf disks from the leaves of 2 or more independent replicate plants were pooled for a single tissue sample and placed in a 1.5-mL microfuge tube with 100 μL sterile distilled water, the amount of leaf tissue per tube was recorded as leaf surface area. Three or more samples were harvested for each time point. […] The number of serial dilutions necessary to get countable colonies were determined for each sample, however dilutions to 10^−7 were usually sufficient for any bacterial strain; 7) The samples were plated on the appropriate medium (e.g., Low salt Luria Bertani) supplemented with the necessary antibiotics to select for the specific inoculated bacterial strain. […]

[4] = system: AtMIN7; experiment: Detection of polyubiquitinated AtMIN7 in planta (western blot, ubiquitin antibody); assay type: cell-based, Nicotiana benthamiana; details: MG132-treated N. benthamiana leaves
Description: Left: AtMIN7::HA and 6×His::HopM1-300, 6×His::HopM301-712 or 6×His::HopM1-712 were transiently co-expressed in MG132-treated N. benthamiana leaves. Ubiquitinated proteins were detected by western blot (WB) with a polyclonal ubiquitin (Ub) antibody (Sigma Co.). Right: AtMIN7::HA and 6×His::HopM1-712 were transiently co-expressed in 1% DMSO(−)- or MG132-treated N. benthamiana leaves. AtMIN7 was immunoprecipitated (IP) using a polyclonal AtMIN7 antibody. Ubiquitinated AtMIN7 protein was detected by western blot (WB) with a polyclonal ubiquitin (Ub) antibody (Sigma Co.). See Materials and Methods for transient expression and immunoprecipitation of AtMIN7 and HopM1 in N. benthamiana leaves.

[5] = biological target: T1, AtMIN7-HA (Arabidopsis thaliana, UniProt F4IXW2, DEL212-213/INS429[…]); experiment: Protein pull-down assay and immunoblot in N. benthamiana leaves; assay type: binding; details: transient co-expression in N. benthamiana leaves, Ni-NTA pull-down
T1 construct: expressed in transfected cells; host or cells: Nicotiana benthamiana leaves, Agrobacterium tumefaciens C58C1 co-infiltration (pBI121-AtMIN or pBAR1-AtMIN)
Description: N. benthamiana plants were transiently transformed with HopM1 and AtMIN proteins. In brief, fully expanded N. benthamiana leaves were co-infiltrated with Agrobacterium tumefaciens C58 C1 (for an example of co-infiltration techniques, see, Hellens, et al. (2005) Plant Methods, 1:13; herein incorporated by reference) comprising plasmids and genes described herein (for example, see, Bechtold, et al. (1993) Comptes Rendus De L Academie Des Sciences Serie Iii-Sciences De La Vie-Life Sciences 316(10):1194-1199; herein incorporated by reference).
In brief: leaf disc fractions were homogenized in 1×SDS-polyacrylamide gel electrophoresis (PAGE) sample buffer, boiled for 5 min, and centrifuged for 2 minutes. Proteins in the supernatant were separated on SDS-PAGE gels and transferred to Immobilon-P membrane for immunoblotting procedures (Millipore Corp., Bedford, Mass.).
Protein pull-down analysis methods: N. benthamiana leaf discs were homogenized in lysis buffer (50 mM Tris-HCl pH=8.0, 250 mM NaCl, 10 mM β-mercaptoethanol, 1% Triton X100, 1 mM PMSF, plant protease inhibitor cocktail [Sigma Co.]). Total protein extracts were collected after centrifugation of the homogenate at 20,000-x g for 15 min at 4° C. to remove insoluble materials. […] AtMIN10-HA was detected using the HA epitope antibody.

[6] = system: Pst DC3000 ΔCEL mutant-pORF43 bacteria; experiment: Bacterial multiplication and disease symptoms in transgenic Arabidopsis expressing HopM1 truncated derivatives; assay type: in vivo; details: fragment expressed in transgenic Arabidopsis, compared with Col-0 gl1 or other truncated derivatives
Description: as §1, §2

[7] = system: Pst DC3000; experiment: as above; assay type: in vivo; details: fragment expressed in transgenic Arabidopsis
Description: as §1, §2

T1 sequence (F4IXW2 with tags, fused parts or gaps DEL212-213/INS429[withheld]): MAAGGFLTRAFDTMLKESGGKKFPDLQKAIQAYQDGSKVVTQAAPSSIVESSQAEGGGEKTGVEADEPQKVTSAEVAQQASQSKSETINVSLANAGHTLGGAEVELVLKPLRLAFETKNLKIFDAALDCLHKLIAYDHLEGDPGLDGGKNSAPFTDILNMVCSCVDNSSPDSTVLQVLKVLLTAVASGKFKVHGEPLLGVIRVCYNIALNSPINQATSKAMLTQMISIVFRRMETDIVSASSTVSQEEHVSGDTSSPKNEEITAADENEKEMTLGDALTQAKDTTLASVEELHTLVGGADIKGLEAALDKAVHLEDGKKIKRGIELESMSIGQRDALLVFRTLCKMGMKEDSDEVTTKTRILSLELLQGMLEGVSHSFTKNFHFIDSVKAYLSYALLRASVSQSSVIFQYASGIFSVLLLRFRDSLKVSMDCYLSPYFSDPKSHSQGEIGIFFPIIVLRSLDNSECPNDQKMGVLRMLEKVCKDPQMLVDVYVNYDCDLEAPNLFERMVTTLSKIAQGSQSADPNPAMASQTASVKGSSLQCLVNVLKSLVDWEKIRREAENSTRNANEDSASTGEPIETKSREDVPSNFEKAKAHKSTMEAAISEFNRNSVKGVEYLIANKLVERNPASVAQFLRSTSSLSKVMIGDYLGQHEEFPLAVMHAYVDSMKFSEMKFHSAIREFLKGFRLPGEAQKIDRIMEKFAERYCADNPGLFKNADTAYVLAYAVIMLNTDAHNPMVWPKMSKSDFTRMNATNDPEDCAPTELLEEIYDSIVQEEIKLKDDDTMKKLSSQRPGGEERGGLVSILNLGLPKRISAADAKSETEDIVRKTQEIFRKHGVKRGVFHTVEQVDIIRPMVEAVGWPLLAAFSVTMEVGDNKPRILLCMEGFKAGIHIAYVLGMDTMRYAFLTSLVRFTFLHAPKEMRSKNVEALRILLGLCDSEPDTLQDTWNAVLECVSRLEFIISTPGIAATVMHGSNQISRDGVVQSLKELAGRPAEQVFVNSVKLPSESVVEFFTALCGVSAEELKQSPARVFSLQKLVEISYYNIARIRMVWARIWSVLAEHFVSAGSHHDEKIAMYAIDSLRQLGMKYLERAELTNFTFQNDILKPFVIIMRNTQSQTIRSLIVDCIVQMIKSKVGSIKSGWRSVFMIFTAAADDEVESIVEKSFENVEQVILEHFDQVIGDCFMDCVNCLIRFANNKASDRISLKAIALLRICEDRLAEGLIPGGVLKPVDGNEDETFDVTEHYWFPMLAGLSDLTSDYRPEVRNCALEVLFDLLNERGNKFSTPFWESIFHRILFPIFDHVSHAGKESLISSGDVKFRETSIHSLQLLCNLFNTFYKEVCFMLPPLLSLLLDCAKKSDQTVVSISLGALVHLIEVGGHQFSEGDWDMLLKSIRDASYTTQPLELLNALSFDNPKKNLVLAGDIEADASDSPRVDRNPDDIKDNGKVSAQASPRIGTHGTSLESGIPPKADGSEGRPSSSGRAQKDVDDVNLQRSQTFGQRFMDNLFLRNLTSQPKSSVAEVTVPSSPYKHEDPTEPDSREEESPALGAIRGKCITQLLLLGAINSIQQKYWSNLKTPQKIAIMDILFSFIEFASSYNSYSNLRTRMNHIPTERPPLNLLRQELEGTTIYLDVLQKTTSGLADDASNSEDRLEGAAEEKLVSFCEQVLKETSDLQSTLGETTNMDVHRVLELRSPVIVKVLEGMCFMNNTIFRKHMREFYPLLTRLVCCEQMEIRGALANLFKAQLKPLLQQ

C[C@@H]1C[C@H]2[C@@H]3CCC4=CC(=O)C=C[C@]4(C)[C@@]3(F)[C@@H](O)C[C@]2(C)[C@@]1(O)C(=O)CO [DEX, dexamethasone]
leaf necrosis ([1]; 0.003 μM DEX spray): did not induce leaf necrosis
time to rapid leaf necrosis ([1]; 30 μM DEX spray): ≤ 10 h

CC(C)C[C@@H](C=O)NC(=O)[C@H](CC(C)C)NC(=O)[C@H](CC(C)C)NC(=O)OCc1ccccc1 [MG132] (Cbz-Leu-Leu-Leu-aldehyde)
effect on HopM1-mediated destabilization of AtMIN7 [2]: blocked

CC[C@H](C)[C@H](NC(=O)[C@H]([C@@H](C)CC)N(C)C(C)=O)C(=O)N[C@H](C(=O)N[C@@H](CC(C)C)C(=O)[C@@]1(C)CO1)[C@@H](C)O [epoxomicin]
effect on HopM1-mediated destabilization of AtMIN7 [2]: blocked

B1: full-length HopM1: Pst DC3000 HopM1, a 712-aa type III effector virulence protein (SEQ ID NO:34) (protein)
chain: MISSRIGGAGGVELSRVNQQHDTVPAQTAHPNAVTAGMNPPLTPDQSGSHATESSSAGAARLNVAARHTQLLQAFKAEHGTAPVSGAPMISSRAALLIGSLLQAEPLPFEVMAEKLSPERYQLKQFQGSDLQQRLEKFAQPGQIPDKAEVGQLIKGFAQSVADQLEHFQLMHDASPATVGQHAKADKATLAVSQTALGEYAGRASKAIGEGLSNSIASLDEHISALDLTLQDAEQGNKESLHADRQALVDAKTTLVGLHADFVKSPEAKRLASVAAHTQLDNVVSDLVTARNTVGGWKGAGPIVAAAVPQFLSSMTHLGYVRLSTSDKLRDTIPETSSDANMLKASIIGMVAGIAHETVNSVVKPMFQAALQKTGLNERLNMVPMKAVDTNTVIPDPFELKSEHGELVKKTPEEVAQDKAFVKSERALLNQKKVQGSSTHPVGELMAYSAFGGSQAVRQMLNDVHQINGQTLSARALASGFGGAVSASSQTLLQLKSNYVDPQGRKIPVFTPDRAESDLKKDLLKGMDLREPSVRTTFYSKALSGIQSSALTSALPPVTAQAEGASGTLSAGAILRNMALAATGSVSYLSTLYTNQSVTAEAKALKAAGMGGATPMLDRTETALNNIRHPNRESLPHTFQKSTLSGIPRVAENAYHMGRGALQLPTQMAVDTVRVVDEGVLNAVASAREALKQPTKDDDALRALEEGLLDPR
modifications: Pseudomonas syringae pv. tomato str. DC3000
complementation of the virulence defect (multiplication, chlorosis) of the Pst DC3000 ΔCEL mutant [3]: almost fully complemented
polyubiquitination of AtMIN7 in vivo [4]: enhanced

B2: 6×His-HopM1301-712: 6×His-tagged C-terminal HopM1 fragment, amino acids 301-712 (protein)
chain: GPIVAAAVPQFLSSMTHLGYVRLSTSDKLRDTIPETSSDANMLKASIIGMVAGIAHETVNSVVKPMFQAALQKTGLNERLNMVPMKAVDTNTVIPDPFELKSEHGELVKKTPEEVAQDKAFVKSERALLNQKKVQGSSTHPVGELMAYSAFGGSQAVRQMLNDVHQINGQTLSARALASGFGGAVSASSQTLLQLKSNYVDPQGRKIPVFTPDRAESDLKKDLLKGMDLREPSVRTTFYSKALSGIQSSALTSALPPVTAQAEGASGTLSAGAILRNMALAATGSVSYLSTLYTNQSVTAEAKALKAAGMGGATPMLDRTETALNNIRHPNRESLPHTFQKSTLSGIPRVAENAYHMGRGALQLPTQMAVDTVRVVDEGVLNAVASAREALKQPTKDDDALRALEEGLLDPR
modifications: left off: small tags and cut ends
physical interaction with AtMIN7-HA [5]: no interaction

B3: HopM1101-712: HopM1 truncated derivative lacking the first 100 aa (SEQ ID NO:98) (protein, listed as Pseudomonas syringae)
chain: LLQAFKAEHGTAPVSGAPMISSRAALLIGSLLQAEPLPFEVMAEKLSPERYQLKQFQGSDLQQRLEKFAQPGQIPDKAEVGQLIKGFAQSVADQLEHFQLMHDASPATVGQHAKADKATLAVSQTALGEYAGRASKAIGEGLSNSIASLDEHISALDLTLQDAEQGNKESLHADRQALVDAKTTLVGLHADFVKSPEAKRLASVAAHTQLDNVVSDLVTARNTVGGWKGAGPIVAAAVPQFLSSMTHLGYVRLSTSDKLRDTIPETSSDANMLKASIIGMVAGIAHETVNSVVKPMFQAALQKTGLNERLNMVPMKAVDTNTVIPDPFELKSEHGELVKKTPEEVAQDKAFVKSERALLNQKKVQGSSTHPVGELMAYSAFGGSQAVRQMLNDVHQINGQTLSARALASGFGGAVSASSQTLLQLKSNYVDPQGRKIPVFTPDRAESDLKKDLLKGMDLREPSVRTTFYSKALSGIQSSALTSALPPVTAQAEGASGTLSAGAILRNMALAATGSVSYLSTLYTNQSVTAEAKALKAAGMGGATPMLDRTETALNNIRHPNRESLPHTFQKSTLSGIPRVAENAYHMGRGALQLPTQMAVDTVRVVDEGVLNAVASAREALKQPTKDDDALRALEEGLLDPR
complementation of the virulence defect (multiplication, chlorosis) of the Pst DC3000 ΔCEL mutant [3]: partially restored

B4: HopM11-300: N-terminal protective fragment of HopM1, amino acids 1-300 (SEQ ID NO:82) (protein, listed as Pseudomonas syringae)
chain: MISSRIGGAGGVELSRVNQQHDTVPAQTAHPNAVTAGMNPPLTPDQSGSHATESSSAGAARLNVAARHTQLLQAFKAEHGTAPVSGAPMISSRAALLIGSLLQAEPLPFEVMAEKLSPERYQLKQFQGSDLQQRLEKFAQPGQIPDKAEVGQLIKGFAQSVADQLEHFQLMHDASPATVGQHAKADKATLAVSQTALGEYAGRASKAIGEGLSNSIASLDEHISALDLTLQDAEQGNKESLHADRQALVDAKTTLVGLHADFVKSPEAKRLASVAAHTQLDNVVSDLVTARNTVGGWKGA
disease symptoms (necrosis and chlorosis) and bacterial multiplication within plants [6]: significantly reduced
susceptibility to Pst DC3000 [7]: still susceptible
physical interaction with AtMIN7-HA [5]: physical interaction
